Measurements published in patent US20230212267A1 (WISTAR INSTITUTE OF ANATOMY AND BIOLOGY, published 2023).

Columns and labels:
[1] = target: recombinant SARS-CoV-2-RBD (Sino Biological) (SARS-CoV-2, UniProt P0DTC2 319-541)
[2] = target: SARS-CoV-2 Spike protein on pseudovirus (wild type) (SARS-CoV-2, UniProt P0DTC2 14-1273); assay: cell-based or functional assay
[3] = target: T1, recombinant SARS-CoV-2 receptor binding domain (RBD) (Examples 1 and 2) (SARS-CoV-2, UniProt P0DTC2 319-541); assay: ELISA, axis RBD Binding (OD450), D14 sera of mice given the S309 DMAb
T1 construct: also called SARS-CoV-2 RBD

[4] = target: T2, recombinant SARS-CoV-2 S1 (Examples 1 and 2) (SARS-CoV-2, UniProt P0DTC2 16-685); assay: ELISA with sera of DMAb-treated mice
T2 construct: domain: Subunit 1 (S1); also called Subunit 1 (S1) domain; S1 domains

[5] = target: T1, recombinant SARS-CoV-2 receptor binding …; assay: ELISA, axis RBD Binding (OD450), serial dilutions of in vitro expressed DMAb

B1: WCoVA7 (antibody, V domains shown)
VH: EVKLLESGGGLVQPGGSLKLSCAASGFDFSRYWMSWVRQAPGKGLEWIGEINPDSSTINYTPSLKDKFIISRDNAKNTLYLQMSKVRSEDTALYYCARIYYGSPGAMDYWGQGTSVTVSS
VL: SIVMTQTPKFLLVSAGDRVTITCKASQSVSNDVAWYQQKPGQSPKLLIYYASNRYTGVPDRFTGSGYGTDFTFTISTVQAEDLAVYFCQQDYFSPYTFGGGTKLEIK
[1]
  Kd: 280 pM
  koff: 9.3e-05 s⁻¹
  kon: 330000 M⁻¹ s⁻¹
  t1/2: 2.07 h
[2]
  IC50, pseudovirus neutralization (wild type virus): 2.6 ng/mL

B2: S309 SARS-CoV-2 DMAb (antibody, V domains shown)
VH: QVQLVQSGAEVKKPGASVKVSCKASGYTFTSYGISWVRQAPGQGLEWMGWISAYNGNTNYAQKLQGRVTMTTDTSTSTAYMELRSLRSDDTAVYYCARDYTRGAWFGESLIGGFDNWGQGTLVTVSA
VL: EIVLTQSPGTLSLSPGERATLSCRASQSVSSSYLAWYQQKPGQAPRLLIYGASSRATGIPDRFSGSGSGTDFTLTISRLEPEDFAVYYCQQHDTSLTFGQGTKVEIKR
notes: also called S309 DMAb
[3]
  binding result: binds

B3: 2381 DMAb (antibody)
heavy: not shown
light: EVVLTQSPGTLSLSPGERATLSCRASQSVSSSYLAWYQQKPGQAPRLLIYGASSRATGIPDRFSGSGSGTDFTLTISRLEPEDFAVYHCQHFGSSSQWTFGQGTKVEIKRTVAAPSVFIFPPSDEQLKSGTASVVCLLNNFYPREAKVQWKVDNALQSGNSQESVTEQDSKDSTYSLSNTLTLSKADYEKHKVYACEVTHQGLSSPVTKSFNRGEC
[4]
  binding result: binds

B4: 2381 (GK) (antibody)
heavy: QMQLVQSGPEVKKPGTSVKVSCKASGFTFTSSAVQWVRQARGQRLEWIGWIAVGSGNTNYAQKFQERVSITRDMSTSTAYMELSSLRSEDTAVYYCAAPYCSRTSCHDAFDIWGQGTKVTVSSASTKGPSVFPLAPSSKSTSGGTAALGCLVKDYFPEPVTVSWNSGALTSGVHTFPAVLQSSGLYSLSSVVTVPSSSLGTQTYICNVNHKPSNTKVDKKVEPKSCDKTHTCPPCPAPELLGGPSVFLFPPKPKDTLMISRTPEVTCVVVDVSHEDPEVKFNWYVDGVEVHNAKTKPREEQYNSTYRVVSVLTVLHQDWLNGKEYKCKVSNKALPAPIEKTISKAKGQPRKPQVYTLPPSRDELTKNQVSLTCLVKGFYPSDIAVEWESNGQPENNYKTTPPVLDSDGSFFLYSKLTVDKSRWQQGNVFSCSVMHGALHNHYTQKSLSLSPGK
light: EVVLTQSPGTLSLSPGERATLSCRASQSVSSSYLAWYQQKPGQAPRLLIYGASSRATGIPDRFSGSGSGTDFTLTISRLEPEDFAVYHCQHFGSSSQWTFGQGTKVEIKRTVAAPSVFIFPPSDEQLKSGTASVVCLLNNFYPREAKVQWKVDNALQSGNSQESVTEQDSKDSTYSLSNTLTLSKADYEKHKVYACEVTHQGLSSPVTKSFNRGEC
[5]
  binding result: binds

B5: 2381 (G) (antibody)
heavy: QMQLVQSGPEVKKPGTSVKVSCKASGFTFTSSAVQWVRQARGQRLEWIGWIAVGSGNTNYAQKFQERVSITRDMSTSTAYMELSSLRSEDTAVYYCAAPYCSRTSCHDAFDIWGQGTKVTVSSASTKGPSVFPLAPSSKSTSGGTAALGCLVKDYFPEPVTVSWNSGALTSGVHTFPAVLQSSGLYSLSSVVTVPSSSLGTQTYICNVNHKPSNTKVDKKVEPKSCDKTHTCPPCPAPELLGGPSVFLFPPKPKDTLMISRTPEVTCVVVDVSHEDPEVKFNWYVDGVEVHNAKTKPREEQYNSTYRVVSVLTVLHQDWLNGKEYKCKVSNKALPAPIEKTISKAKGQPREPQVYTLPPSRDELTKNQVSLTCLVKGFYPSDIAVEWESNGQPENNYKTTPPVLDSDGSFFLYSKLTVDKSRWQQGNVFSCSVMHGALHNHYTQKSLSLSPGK
light: EVVLTQSPGTLSLSPGERATLSCRASQSVSSSYLAWYQQKPGQAPRLLIYGASSRATGIPDRFSGSGSGTDFTLTISRLEPEDFAVYHCQHFGSSSQWTFGQGTKVEIKRTVAAPSVFIFPPSDEQLKSGTASVVCLLNNFYPREAKVQWKVDNALQSGNSQESVTEQDSKDSTYSLSNTLTLSKADYEKHKVYACEVTHQGLSSPVTKSFNRGEC
[5]
  binding result: binds

B6: 2196 DMAb (antibody, V domains shown)
VH: QMQLVQSGPEVKKPGTSVKVSCKASGFTFTSSAVQWVRQARGQRLEWIGWIAVGSGNTNYAQKFQERVSITRDMSTSTAYMELSSLRSEDTAVYYCAAPYCSSISCNDGFDIWGQGTKVTVSS
VL: EVVLTQSPGTLSLSPGERATLSCRASQSVSSSYLAWYQQKPGQAPRLLIYGASSRATGIPDRFSGSGSGTDFTLTISRLEPEDFAVYHCQHYGSSSQWTFGQGTKVEIKR
notes: also called 2196 WT DMAb
[5]
  binding result: binds
[4]
  binding result: binds

B7: WCoVA9 (antibody, V domains shown)
VH: EVQLQQSGAELVKPGASVKLSCTASGFNIKDTYMHWVKQRPEQGLEWIGRIDPANGNTKYDPKFQAKATITANTSSNTAYLHLSSLTSEDTAVYYCAPYYDYVGAMDYWGQGTSVTVSS
VL: DIQMTQSPASQSASLGESVTITCLASQTIGTWLAWYQQKPGKSPQLLIYAATSLADGVPSRFSGSGSGTKFSFKISSLQAEDFVSYYCQQLYNTPLTFGGGTKLEIK
[1]
  Kd: 42 pM
  koff: 1.9e-05 s⁻¹
  kon: 470000 M⁻¹ s⁻¹
  t1/2: 10.1 h
[2]
  IC50, pseudovirus neutralization (wild type virus): 4.9 ng/mL
